Experimental data: PMC9712106 (2022)
Read-outs that look alike come from different tables or passages of the source.

T1: PTRAMP–CSS heterodimer (disulfide-linked PfPTRAMP 42–309 and PfCSS 20–290) (P. falciparum)
T1 chain 1: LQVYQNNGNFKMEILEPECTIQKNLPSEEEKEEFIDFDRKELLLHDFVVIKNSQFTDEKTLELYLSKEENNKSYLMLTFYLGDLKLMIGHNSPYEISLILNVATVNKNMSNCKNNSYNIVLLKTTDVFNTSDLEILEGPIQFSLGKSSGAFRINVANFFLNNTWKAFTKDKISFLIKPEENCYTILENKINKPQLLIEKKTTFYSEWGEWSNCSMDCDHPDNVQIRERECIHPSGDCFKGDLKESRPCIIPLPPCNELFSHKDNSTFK
T1 chain 2: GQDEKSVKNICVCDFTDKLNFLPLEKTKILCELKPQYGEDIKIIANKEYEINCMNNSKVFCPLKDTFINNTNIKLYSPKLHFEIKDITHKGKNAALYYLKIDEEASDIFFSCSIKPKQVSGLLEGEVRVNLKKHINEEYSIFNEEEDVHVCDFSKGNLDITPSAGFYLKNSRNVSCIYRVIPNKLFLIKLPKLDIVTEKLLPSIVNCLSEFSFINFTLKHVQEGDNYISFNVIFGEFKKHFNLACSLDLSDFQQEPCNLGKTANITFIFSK

B1: anti-PfCSS nanobody E12 (VHH)
VHH: QVQLQESGGGLVQAGGSLRLSCVASTRTFGNYAMAWFRQAPGKEREFVTTISASGGNTGAAPSVKGRFAISRDNAKNTVYLQMNSLKPEDTAVYYCAAASAYYSNDPARYTYWGQGTQVTVSS
B2: anti-PfPTRAMP nanobody H8 (VHH)
VHH: QVQLQESGGGLVQPGGSLRLSCAASGFTFSSYWMYWVRQAPGKGLEWVSAINTGGGSTAYADSVKGRFTISRDNAKNTLYLQMNSLKSDDTAVYYCVKARGSSWSDRVFDYWGQGTQVTVSS
B3: anti-PfCSS nanobody C10 (VHH)
VHH: QVQLQESGGGLVQAGGSLRLSCVASGRTFSNDAMGWFRQAPGKEREFVAAATRNGLGTGYADSVKGRFTISRDNAKNTVYLQMNSLKPEDTAVYYCAAASDAYYSNQRAAYDYWGQGTQVTVSS
B4: anti-PfCSS nanobody D9 (VHH)
VHH: QVQLQESGGGLVQAGGSLTLSCAASGRTFSRSAMGWFRQAPGKGREFVAAISSGDTSTYYMDSVKGRFTISRDSSKNTVYLQMNNLRPEDTAVYYCAADPKSYITTMISEYDIWGQGTQVTVSS
B5: anti-PfCSS nanobody C1 (VHH)
VHH: QVQLQESGGGLVQAGGSLRLSCAASGRSFSSYAMGWFSQAPGKEREFVAAISWNGGSTYYADSVKGRFTISRNNAKNTVYLQMNSLKPEDTAVYYCAATEPEIYISTMAEGYDYWGQGTQVTVSS
B6: anti-PfPTRAMP nanobody H10 (VHH)
VHH: QVQLQESGGGLVQPGGSLRLSCAASGFTFDNYWMYWVRQAPGKGLEWVSAINTVGSHTYYADSVKGRFTISRDNAKNTLYLQMNSLKSEDTAVYYCAKGPWGFGTSGWGEMDYWGKGTQVTVSS
B7: H2 nanobody (anti-PfCSS, non-inhibitory) (VHH)
VHH: QVQLQESGGGLVQPGGSLRLSCAASGSIFSTNAMGWYRQAPGKQREQVATITSGSSTNYADSVKGRFTISRDNAKNTVYLQMNSLKPEDTAVYYCNAAGATIDLADFGSWGQGTQVTVSS
B8: anti-PfCSS nanobody F7 (VHH)
VHH: QVQLQESGGGSVQVGDSLSLSCVASGRTFSTYALGWFRQAPGKEREFVAAASANGKVAPVTGSLRDRFSISRDNAKNTMYLQMNNLKPEDTAVYYCAAATGSEVFISTSPNVYDIWGQGTQVTVSS
B9: anti-PfCSS nanobody B6 (VHH)
VHH: QVQLQESGGGLVQAGGSLRLSCAASGRTFSRYAMGWFRQAPGKEREFVAAISWSGGSTTYADSVKGRFTISRDNAKNTVYLQMNSLKPEDTAVYYCAAGDFIIGNMASEYEYWGQGTQVTVSS
B10: anti-PfCSS nanobody G5 (VHH)
VHH: QVQLQESGGGLVQAGGSLRLSCVASGRTFSSYGMGWFRQAPGKEREFVSAISSDAASRHYANSVKGRFTISRDNAKNTVTLQMSSLTPEDTAVYYCAAVHAYYSNYDGHYDYWGQGTQVTVSS
B11: PfCSS (residues 20 to 290) (domain or fragment)
chain: T1 chain 2
modifications: N-linked glycan on Asn88 (seen in the crystal structure)
B12: D2 nanobody (anti-PfCSS, inhibitory) (VHH)
VHH: QVQLQESGGGLVQAGGSLRLSCAASGRTFSSYAMGWFRQAPGKEREFVAAISYSGSNTYDADSVKGRFAISRDNAKNTVYLQMNSLKPEDTAVYYCAAAGVYSGTYTDTEFDYWGQGTQVTVSS
B13: anti-PfCSS nanobody F1 (VHH)
VHH: QVQLQESGGGLVQAGGPLRLSCVASGRTFSLHLMGWFRQAPGKEREFVAAISGSGGSTYYADSVKGRFTISRDNAKNTVYLQMNSLKPEDTAVYYCAADLENYMSTMLDGYNYWGQGTQVTVSS
B14: anti-PfCSS nanobody D1 (VHH)
VHH: QVQLQESGGGLVQAGGSLRLSCAASGRTFSSLAMGWFRQPPGKEREFVAAISYSSGSTYYADSVKGRFTISRDNAKNTVYLQMNSLKPEDTAVYYCAVTPPDTYISTMGHEYDYWGQGTQVTVSS
B15: anti-PfCSS nanobody B1 (VHH)
VHH: QVQLQESGGGLVQYGGSLRLSCAASGRTFSSYSMGWFRQAPGKEREFVAAISWTGGNTYYLGSTEGRFTISRDNAKNTVFLQMNNLKPEDTAVYYCAAKGRGSSWPTYDYRGQGTQVTVSS
B16: anti-PfCSS nanobody C9 (VHH)
VHH: QVQLQESGGGLVQAGDSLRLSCAASGRTFSSYAMGWFRQAPGKEREFVAAIAWNGGSTYYQDSVKGRFTISRDNAKNTVYLQMNSLKPEDTAVYYCAADDSYMSTMIHEYDYWGQGTQVTVSS

Key:
Assay in all cases: BLI
[1] = target: T1, PTRAMP–CSS heterodimer …
[2] = target: B11
[3] = target: T2, PfPTRAMP (residues 42 to 309), PMX cleaved ectodomain (P. falciparum, UniProt Q8I5M8)
[4] = target: T2, PfPTRAMP (residues 42 to 309), PMX …; remark: listed apart in the source

Binder | Kd [1] | Kd [2] | Kd [3] | Kd [4]
B1 | 16 nM | 12 nM | – | –
B2 | 410 nM | – | 400 nM | –
B3 | 12 nM | 1.5 nM | – | –
B4 | 11 nM | 4.4 nM | – | –
B5 | 6.8 nM | 0.99 nM | – | –
B6 | 390 nM | – | 530 nM | –
B7 | – | 0.88 nM | – | –
B8 | 9.9 nM | 5 nM | – | –
B9 | 2.5 nM | 0.66 nM | – | –
B10 | 7 nM | 4.9 nM | – | –
B11 | – | – | – | 19000 nM
B12 | – | 4.4 nM | – | –
B13 | 9.9 nM | 3.5 nM | – | –
B14 | 9 nM | 2.6 nM | – | –
B15 | 5.6 nM | 4 nM | – | –
B16 | 12 nM | 6.5 nM | – | –
